The test concerns the target V1.1. Put plainly: SPR. A general note: In SPR one partner is held on a chip, and binding of the other changes the refractive index at the surface.

What is called Kd is the constant that tells how readily two partners part at equilibrium.

B1: CFH (fH67) (other)
chain: TLKPCDYPDIKHGGLYHENMRRPYFPVAVGKYYSYYCDEHFETPSGSYWDHIHCTQDGWSPAVPCLRKCYFPYLENGYNQNYGRKFVQGKSIDVACHPGYALPKAQTTVTCMENGWSPTPRCI
B1 yielded a Kd of 3.6 nM.

Values taken from patent US20220112249A1 (published 2022).
